Results reported in patent US20190257845A1, “METHOD FOR CALORIMETRIC DETERMINATION OF THE LIPOPROTEIN LIPASE ACTIVITY IN HUMAN PLASMA ENVIRONMENT” (Tallinn University of Technology, priority 2016, published 2019).
Values belong to the molecule of their own block, whether it stands above or below them.

How the values were obtained:
[1] = target: T1, lipoprotein lipase (LPL) (Bos taurus, UniProt P11151); assay: ITC measurement of LPL activity in human plasma with added regulators or inhibitors; type: biochemical, bovine; conditions: for effect on activity of LPL in plasma: LPL 0.6 nM
T1 construct: Bovine LPL was purified from milk; from tissue; host or cells: bovine milk
T1 sequence (P11151 29-478): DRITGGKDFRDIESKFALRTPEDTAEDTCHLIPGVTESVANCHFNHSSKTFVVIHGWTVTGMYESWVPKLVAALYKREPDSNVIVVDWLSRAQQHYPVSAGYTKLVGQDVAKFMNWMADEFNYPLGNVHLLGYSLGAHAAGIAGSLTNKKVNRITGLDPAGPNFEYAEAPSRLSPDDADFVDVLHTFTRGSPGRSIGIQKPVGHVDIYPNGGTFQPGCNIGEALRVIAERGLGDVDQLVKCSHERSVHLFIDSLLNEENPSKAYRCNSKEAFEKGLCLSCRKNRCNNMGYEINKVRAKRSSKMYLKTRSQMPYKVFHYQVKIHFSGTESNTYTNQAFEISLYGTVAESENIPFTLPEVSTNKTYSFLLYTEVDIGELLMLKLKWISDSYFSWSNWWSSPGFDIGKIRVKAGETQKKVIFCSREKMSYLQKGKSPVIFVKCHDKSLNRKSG
Protocol: Preparing the reagents—Bovine LPL was purified from milk (Bengtsson-Olivecrona & Olivecrona 1991) and dialysed to buffer containing 10 mM TRIS, pH 8.5 (4° C.), 4 mM sodium deoxycholate. Stock solutions of 0.5 mg/ml LPL were stored at −80° C. The N-terminal coiled-coil domain of human angiopoietin-like protein 4 (ANGPTL4), residues 26-184, was expressed in E. coli and purified as described (Robal et al. 2012). Full-length human angiopoietin-like protein 3 (ANGPTL3) expressed in Sf 21 cells was obtained from R&D Systems (USA). Apolipoprotein C-III0 was from human blood plasma (Bengtsson-Olivecrona & Sletten 1990). Apolipoprotein C-II and apolipoprotein A-V were expressed in E. coli and purified as described (Shen et al. 2010; Beckstead et al. 2003). A synthetic peptide corresponding to the N-terminal domain of human GPIHBP1, residues 23-51, was bought from Caslo (Denmark). The sequence of the peptide was as follows: […]. Antibodies (goat IgG) to human hepatic lipase were raised in a goat against hepatic lipase isolated from human post-heparin plasma (Olivecrona & Olivecrona 2000). The IgG fraction was isolated using Protein-A columns and the final preparation contained 5 mg protein per milliliter in 20 mM Na-phosphate buffer and 0.15 M NaCl (pH 7.4).
Sample preparation—Before experiments the human plasma samples were diluted 1.2 times with TRIS buffer pH 7.4 or with the additions specified for each experiment. The final concentration of TRIS was 20 mM in all cases. Stock solutions of LPL were diluted in cold 10 mM TRIS, pH 8.5, containing 4 mM sodium deoxycholate. In this buffer, LPL is stable for a long period of time, even at low protein concentrations The final concentration of deoxycholate during incubations with plasma or lipoproteins was 10 to 100 times lower than the initial. […] In experiments with post-heparin plasma, antibodies to hepatic lipase (in PBS) or the same volume of PBS only were added (180 μl of IgG or PBS was mixed with 360 μl of post-heparin plasma) and the mixture was then incubated for 2 hours on ice prior to experiments (Olivecrona & Olivecrona 2000). All samples were degassed under vacuum for 15 minutes before the ITC experiments.
(§1) ITC measurements—Most of the experiments were performed on an Nano ITC model 5300 (TA Instruments, USA) at 25° C. A MicroCal Auto-iTC200 (GE Healthcare) instrument was used for experiments regarding relationship between total heat production and released fatty acids. In a typical experiment performed by Nano ITC, the lipase substrate (plasma, Intralipid 20% or VLDL) with or without added ligands was placed into the calorimetric cell (1035 μl) and the syringe (250 μl) was filled with LPL-containing solution (bovine LPL or post-heparin plasma) (see FIG. 1A). MilliQ water was loaded into the reference cell (1032 μl). The stirring speed in the sample cell was 400 rpm. The baseline was left to stabilize for at least 1 hour before injections of LPL or post-heparin plasma. In all experiments, the first injection was 2 μl and after that single or sequential injections of 10 to 25 μl were made. The interval between the injections was from 200 s to 500 s. In experiments performed by MicroCal Auto-iTC200, 400 μl of lipase substrate (plasma), 400 μl of equilibration buffer (20 mM TRIS, pH 7,4) and a sufficient volume of LPL (0.8 μM) were placed on the loading plate. The calorimetric cell (200 μl) was rinsed with equilibration buffer and loaded with 200 μl of substrate in an automated fashion. The syringe was loaded with 40 μl of LPL-containing solution. The stirring speed in the sample cell was 600 rpm and the baseline was stabilized automatically. The first injection of LPL was 0.2 μl and the second injection was 2 μl. The experiment time was 1 hour to allow full hydrolysis of plasma triglycerides.After each experiment the Nano ITC sample cell was washed with the following solutions, one after the other: MilliQ water, 2% SDS, 40 mM NaOH and finally 95% ethanol. […]

[2] = target: T1, lipoprotein lipase (LPL); assay: ITC measurement of Intralipid hydrolysis by LPL, activation by apoC-II; type: biochemical, bovine; conditions: Intralipid substrate
Protocol: The substrate mixture composition was as follows: 1 mg triglyceride/ml Intralipid, 10 mg/ml BSA, 10 IU/ml heparin, 0.15 M NaCl, 10 mM TRIS pH 7.4. […] Final concentration of LPL was 1.2 nM in all experiments.
Heat rate points at 200 s were obtained from FIG. 5a. The data were fitted using the following equation (Quinn et al. 1983): […]
as §1, with “[…] Raw ITC data were analysed using” for “The experiment time was 1 hour to allow full hydrolysis of plasma triglycerides.After each experiment”, “NanoAnalyze (TA Instruments) Or MicroCal Origin (GE Healthcare).” for “Nano ITC sample cell was washed with the following solutions, one after the other: MilliQ water, 2% SDS, 40 mM NaOH and finally 95% ethanol.”

- effect on activity of LPL in plasma ([1]; 10 nM apoA-V, TG 1 mM): did not change the activity of LPL
- effect on activity of LPL in plasma ([1]; 100 nM apoA-V, TG 1 mM): some inhibition was observed
B1: apoA-V: apolipoprotein A-V expressed in E. coli (protein, UniProt Q6Q788 24-366, looked up)
Apolipoprotein A-V: RKGFWDYFSQTSGDKGRVEQIHQQKMAREPATLKDSLEQDLNNMNKFLEKLRPLSGSEAPRLPQDPVGMRRQLQEELEEVKARLQPYMAEAHELVGWNLEGLRQQLKPYTMDLMEQVALRVQELQEQLRVVGEDTKAQLLGGVDEAWALLQGLQSRVVHHTGRFKELFHPYAESLVSGIGRHVQELHRSVAPHAPASPARLSRCVQVLSRKLTLKAKALHARIQQNLDQLREELSRAFAGTGTEEGAGPDPQMLSEEVRQRLQAFRQDTYLQIAAFTRAIDQETEEVQQQLAPPPPGHSAFAPEFQQTDSGKVLSKLQARLDDLWEDITHSLHDQGHSHLGDP

- estimated maximal activation factor of LPL ([2]; 1.2 nM LPL, apoC-II 0 to 1000 nM, heat rate at 200 s, model of Quinn et al. 1983): 4.2±1.2
- Kd ([2]; 1.2 nM LPL, heat rate at 200 s, model of Quinn et al. 1983, read-out: Kd value (affinity of apoC-II for LPL)): 22 ± 8 nM
- effect on stability of LPL ([2]; LPL not stable without apoC-II or below 100 nM): stabilized LPL
B3: apoC-II: Apolipoprotein C-II expressed in E. coli; activator of LPL (protein, UniProt P02655 29-101, looked up)
Apolipoprotein C-II: DEMPSPTFLTQVKESLSSYWESAKTAAQNLYEKTYLPAVDEKLRDLYSKSTAAMSTYTGIFTDQVLSVLKGEE

The next lines start with the molecule.

Molecule: CCCCCCCCCCC[C@@H](C[C@@H]1OC(=O)[C@H]1CCCCCC)OC(=O)[C@H](CC(C)C)NC=O [THL, tetrahydrolipstatin, reference compound]
- immediate drop of the activity of LPL ([1]; 10 μM THL, human plasma, LPL 1 nM, unchanged afterwards): 80%
- THL concentration at which inhibition of LPL was detectable ([1]; human plasma, LPL 1 nM): 90 nM

Molecule: QQEEEEEDEDHGPDDYDEEDEDEVEEEET [N-terminal peptide of GPIHBP1, synthetic peptide corresponding to the N-terminal domain of human GPIHBP1, residues 23-51, reference compound]
- protection of LPL from inactivation by ANGPTL4 ([1]; 100 nM ANGPTL4, LPL 0.6 nM, TG 1 mM): could not protect LPL from inactivation

B2: ANGPTL3: Full-length human angiopoietin-like protein 3 expressed in Sf 21 cells, from R&D Systems (protein, UniProt Q9Y5C1 1-460, looked up)
chain: MFTIKLLLFIVPLVISSRIDQDNSSFDSLSPEPKSRFAMLDDVKILANGLLQLGHGLKDFVHKTKGQINDIFQKLNIFDQSFYDLSLQTSEIKEEEKELRRTTYKLQVKNEEVKNMSLELNSKLESLLEEKILLQQKVKYLEEQLTNLIQNQPETPEHPEVTSLKTFVEKQDNSIKDLLQTVEDQYKQLNQQHSQIKEIENQLRRTSIQEPTEISLSSKPRAPRTTPFLQLNEIRNVKHDGIPAECTTIYNRGEHTSGMYAIRPSNSQVFHVYCDVISGSPWTLIQHRIDGSQNFNETWENYKYGFGRLDGEFWLGLEKIYSIVKQSNYVLRIELEDWKDNKHYIEYSFYLGNHETNYTLHLVAITGNVPNAIPENKDLVFSTWDHKAKGHFNCPEGYSGGWWWHDECGENNLNGKYNKPRAKSKPERRRGLSWKSQNGRLYSIKSTKMLIHPTDSESFE
modifications: full-length
notes: Full-length human angiopoietin-like protein 3 expressed in Sf 21 cells, from R&D Systems
- concentration at which effect on LPL in plasma was detectable ([1]; human plasma): detectable already at nanomolar concentrations
